Measured values reported in patent publication US12060433B2, “CD73 inhibitor and A2A/A2B adenosine receptor inhibitor combination therapy” (Incyte Corporation, priority 2020, dated 2024).

Target: T1, mouse CD73 (SEQ ID NO: 71) (Mus musculus, UniProt Q61503)
T1 construct: purchased BPS Bioscience
T1 sequence (Q61503 29-551): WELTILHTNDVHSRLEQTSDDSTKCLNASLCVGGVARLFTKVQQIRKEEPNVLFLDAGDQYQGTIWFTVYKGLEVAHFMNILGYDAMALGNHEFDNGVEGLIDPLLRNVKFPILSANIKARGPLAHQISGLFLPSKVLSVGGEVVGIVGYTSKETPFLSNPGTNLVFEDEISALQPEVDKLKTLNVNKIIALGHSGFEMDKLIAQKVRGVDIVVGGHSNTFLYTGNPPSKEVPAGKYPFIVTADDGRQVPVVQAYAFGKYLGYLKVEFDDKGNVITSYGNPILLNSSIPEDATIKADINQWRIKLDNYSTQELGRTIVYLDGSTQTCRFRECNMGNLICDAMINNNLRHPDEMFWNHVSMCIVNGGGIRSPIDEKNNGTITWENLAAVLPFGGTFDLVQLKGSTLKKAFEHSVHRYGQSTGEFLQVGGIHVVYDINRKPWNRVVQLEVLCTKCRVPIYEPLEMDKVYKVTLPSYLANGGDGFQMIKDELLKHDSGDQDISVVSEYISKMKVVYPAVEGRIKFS
Experiment: SPR (Biacore 8K) binding affinity and kinetics to mouse CD73
Description: The SPR running buffer (10 mM HEPES, 150 mM NaCl, 3 mM EDTA and 0.05% v/v Surfactant P20, pH 7.4) was prepared from 10×HBS-EP Buffer (GE Healthcare). Anti-human Fc antibodies (GE Healthcare) were immobilized via amine coupling on all sixteen flow cells of an S series sensor chip CM5 (GE Healthcare). The immobilization levels were ˜9000 RU for all flow cells. The desired capturing level of anti-CD73 antibody was achieved by flowing appropriate concentration of anti-CD73 antibody through the active flow cell of each channel. The non-cleavable ADP analogue APCP (adenosine-5′-(α,β-methylene) diphosphate) with the presence of Zn^2+ can be used to shift the CD73 conformational equilibrium from open towards closed. Therefore, recombinant CD73 was incubated with SPR running buffer in the presence of 100 μM APCP and 10 μM ZnCl2 (closed SPR running buffer) to study the binding of anti-CD73 antibody to the CD73 in the closed conformation. To achieve this, the ABA injection feature in Biacore 8K was used. For open conformation, the ABA injection sequence started with 60 seconds injection of running buffer. Then, CD73 3-fold serial dilution concentration series prepared from CD73 stock (BPS Bioscience) and running buffer were injected for 180 seconds immediately followed by running buffer for 240 seconds. […]

B1: CL25: chimeric anti-human CD73 monoclonal antibody, murine VH SEQ ID NO:26 and VL SEQ ID NO:27 with human IgG1 Fc (antibody, V domains shown)
VH: QVQLQQSGAELARPGASVKLSCRASGYTFTSYGLSWVKQRTGQGLEWIGEIYPGSGNTYYNEKFKGKATLTADKSSSTAYMELRSLTSEDSAVYFCARYDYLGSSYGFDYWGQGTTLTVSS
VL: DIVMTQSHKFMSTSVGDRVSITCKASQDVSTAVAWYQQKPGQSPKLLIYSASYRYNGVPDRFTGSGSGTDFTFTISSVQAEDLAVYYCQQHYNTPYTFGGGTKLEIK
modifications: human IgG1 Fc constant regions without entry
In the case of B1, the KD (murine CD73, closed conformation (merged ka/kd/KD cell)) is reported as “No Binding” and the KD (murine CD73, open conformation (merged ka/kd/KD cell where no binding)) is reported as “No Binding”.
